PMC12431857, “A multichaperone condensate enhances protein folding in the endoplasmic reticulum” (Nature Cell Biology, 2025)

B1: Human PDIA6 lacking its ER signal sequence (residues 19-440) (natural protein, UniProt Q15084-1 19-440, looked up)
chain: GLYSSSDDVIELTPSNFNREVIQSDSLWLVEFYAPWCGHCQRLTPEWKKAATALKDVVKVGAVDADKHHSLGGQYGVQGFPTIKIFGSNKNRPEDYQGGRTGEAIVDAALSALRQLVKDRLGGRSGGYSSGKQGRSDSSSKKDVIELTDDSFDKNVLDSEDVWMVEFYAPWCGHCKNLEPEWAAAASEVKEQTKGKVKLAAVDATVNQVLASRYGIRGFPTIKIFQKGESPVDYDGGRTRSDIVSRALDLFSDNAPPPELLEIINEDIAKRTCEEHQLCVVAVLPHILDTGAAGRNSYLEVLLKLADKYKKKMWGWLWTEAGAQSELETALGIGGFGYPAMAAINARKMKFALLKGSFSEQGINEFLRELSFGRGSTAPVGGGAFPTIVEREPWDGRDGELPVEDDIDLSDVELDDLGKDEL
notes: Homodimer by SEC-MALS; Isotope-labelled (methyl labelling) for NMR; also called PDIA6 WT; PDIA6 full-length; not shown: His6, N-terminal, cleaved

Columns and labels:
[1] = target: B1; experiment: NMR titration; 2D [13C,1H]-HMQC of methyl-labelled full-length PDIA6 with 10 mM Ca2+, 10 eq. linker peptide added, no crowding agent, 37 °C; read-out: populations of conformations P and O of domain b; also after addition of 1 M KCl; settings: both partners purified
[2] = target: T1, Human BiP lacking its ER signal sequence (residues 19-654) (human, UniProt P11021 19-654); experiment: NMR titration; 2D [13C,1H]-HMQC or [15N,1H]-HSQC of 100 μM labelled protein without and with 2 eq. of the unlabelled partner; chemical shift perturbation mapping; 37 °C; settings: both partners purified
T1 construct: Isotope-labelled (Ile, Met, Val methyl groups) where it was the observed protein in NMR; also called Hsp70 BiP; GRP78; not shown: His6, N-terminal, cleaved

[3] = target: the molecule itself; experiment: SEC-MALS; S200 10/300 GL column, 25 °C, SEC buffer (25 mM HEPES pH 7.5, 150 mM KCl, 10 mM MgCl2); proteins eluted at 20 μM
[4] = target: T1, Human BiP lacking its ER signal …; experiment: MST; 20 nM N-terminally tagged DyLight 488-PDIA6 with increasing BiP; SEC buffer with 5 mM ADP, 1 mM KH2PO4/K2HPO4, 0.05% Tween, 1 mM CaCl2; 30 min at 25 °C; Monolith NT.115; triplicates; settings: both partners purified

T1 sequence (P11021 19-654): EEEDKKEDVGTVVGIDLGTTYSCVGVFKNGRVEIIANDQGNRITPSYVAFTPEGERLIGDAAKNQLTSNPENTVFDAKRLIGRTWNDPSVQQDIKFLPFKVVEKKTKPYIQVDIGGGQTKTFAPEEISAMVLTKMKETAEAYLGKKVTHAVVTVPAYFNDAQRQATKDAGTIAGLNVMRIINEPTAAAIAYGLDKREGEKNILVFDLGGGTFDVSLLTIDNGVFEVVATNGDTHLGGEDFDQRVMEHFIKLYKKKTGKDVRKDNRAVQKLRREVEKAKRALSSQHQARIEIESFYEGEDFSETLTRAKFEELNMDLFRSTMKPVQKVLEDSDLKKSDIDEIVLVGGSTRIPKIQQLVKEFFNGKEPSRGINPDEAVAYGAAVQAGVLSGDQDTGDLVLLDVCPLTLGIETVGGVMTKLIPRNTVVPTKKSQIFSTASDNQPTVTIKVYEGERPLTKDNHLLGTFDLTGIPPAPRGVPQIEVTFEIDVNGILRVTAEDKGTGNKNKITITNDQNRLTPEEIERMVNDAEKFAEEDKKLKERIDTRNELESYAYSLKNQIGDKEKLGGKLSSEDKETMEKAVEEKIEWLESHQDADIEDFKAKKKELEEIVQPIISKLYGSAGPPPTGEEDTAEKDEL

Binder | stoichiometry N [3] | further results
GGRSGGYSSGKQGRSDSSSKK (linker between domains a0 and a of human PDIA6; Limits worked out from the printed positions R142, K150, R153, K159, K160 of the linker mutants; also called linker peptide) [21-residue peptide corresponding to the a0-a linker of PDIA6] | – | binding result [1]: binds
PDIA6 his-domain ab (residues 161-440) (domain or fragment, human, UniProt Q15084 161-440, looked up, PDIA6, human, domains a and b with the C-terminal tail, residues 161-440; also called PDIA6 domain ab; his-TEV-domain ab; source: E. coli BL21-(DE3)-Lemo, purified (Ni-NTA, SEC); not shown: His6, N-terminal, kept) DVIELTDDSFDKNVLDSEDVWMVEFYAPWCGHCKNLEPEWAAAASEVKEQTKGKVKLAAVDATVNQVLASRYGIRGFPTIKIFQKGESPVDYDGGRTRSDIVSRALDLFSDNAPPPELLEIINEDIAKRTCEEHQLCVVAVLPHILDTGAAGRNSYLEVLLKLADKYKKKMWGWLWTEAGAQSELETALGIGGFGYPAMAAINARKMKFALLKGSFSEQGINEFLRELSFGRGSTAPVGGGAFPTIVEREPWDGRDGELPVEDDIDLSDVELDDLGKDEL | – | binding result [2]: binds
B1 | 2 | binding result [2]: binds
DyLight 488-PDIA6 (N-terminally tagged, residues 19-440) (natural protein, human, UniProt Q15084 19-440, looked up, DyLight 488 amine-reactive dye on the N-terminus, Same construct as m1, fluorescently labelled for MST (0.75-1.5 moles dye per mole protein); not shown: His6, N-terminal, cleaved) GLYSSSDDVIELTPSNFNREVIQSDSLWLVEFYAPWCGHCQRLTPEWKKAATALKDVVKVGAVDADKHHSLGGQYGVQGFPTIKIFGSNKNRPEDYQGGRTGEAIVDAALSALRQLVKDRLGGRSGGYSSGKQGRSDSSSKKDVIELTDDSFDKNVLDSEDVWMVEFYAPWCGHCKNLEPEWAAAASEVKEQTKGKVKLAAVDATVNQVLASRYGIRGFPTIKIFQKGESPVDYDGGRTRSDIVSRALDLFSDNAPPPELLEIINEDIAKRTCEEHQLCVVAVLPHILDTGAAGRNSYLEVLLKLADKYKKKMWGWLWTEAGAQSELETALGIGGFGYPAMAAINARKMKFALLKGSFSEQGINEFLRELSFGRGSTAPVGGGAFPTIVEREPWDGRDGELPVEDDIDLSDVELDDLGKDEL | – | Kd [4]: ~50 µM
PDIA6 (R142Q, K150N, R153Q) linker mutant (natural protein, human, UniProt Q15084 19-440, looked up, PDIA6, human, residues 19-440; source: E. coli BL21-(DE3)-Lemo, purified as the WT protein; not shown: His6, N-terminal, cleaved) GLYSSSDDVIELTPSNFNREVIQSDSLWLVEFYAPWCGHCQRLTPEWKKAATALKDVVKVGAVDADKHHSLGGQYGVQGFPTIKIFGSNKNRPEDYQGGRTGEAIVDAALSALRQLVKDRLGGQSGGYSSGNQGQSDSSSKKDVIELTDDSFDKNVLDSEDVWMVEFYAPWCGHCKNLEPEWAAAASEVKEQTKGKVKLAAVDATVNQVLASRYGIRGFPTIKIFQKGESPVDYDGGRTRSDIVSRALDLFSDNAPPPELLEIINEDIAKRTCEEHQLCVVAVLPHILDTGAAGRNSYLEVLLKLADKYKKKMWGWLWTEAGAQSELETALGIGGFGYPAMAAINARKMKFALLKGSFSEQGINEFLRELSFGRGSTAPVGGGAFPTIVEREPWDGRDGELPVEDDIDLSDVELDDLGKDEL | 2 | –
PDIA6 5x linker mutant (R142Q, K150N, R153Q, K159N and K160N) (natural protein, human, UniProt Q15084 19-440, looked up, PDIA6, human, residues 19-440; source: E. coli BL21-(DE3)-Lemo, purified as the WT protein; not shown: His6, N-terminal, cleaved) GLYSSSDDVIELTPSNFNREVIQSDSLWLVEFYAPWCGHCQRLTPEWKKAATALKDVVKVGAVDADKHHSLGGQYGVQGFPTIKIFGSNKNRPEDYQGGRTGEAIVDAALSALRQLVKDRLGGQSGGYSSGNQGQSDSSSNNDVIELTDDSFDKNVLDSEDVWMVEFYAPWCGHCKNLEPEWAAAASEVKEQTKGKVKLAAVDATVNQVLASRYGIRGFPTIKIFQKGESPVDYDGGRTRSDIVSRALDLFSDNAPPPELLEIINEDIAKRTCEEHQLCVVAVLPHILDTGAAGRNSYLEVLLKLADKYKKKMWGWLWTEAGAQSELETALGIGGFGYPAMAAINARKMKFALLKGSFSEQGINEFLRELSFGRGSTAPVGGGAFPTIVEREPWDGRDGELPVEDDIDLSDVELDDLGKDEL | 2 | –
PDIA6 (K150N, R153Q, K159N) linker mutant (natural protein, human, UniProt Q15084 19-440, looked up, PDIA6, human, residues 19-440; source: E. coli BL21-(DE3)-Lemo, purified as the WT protein; not shown: His6, N-terminal, cleaved) GLYSSSDDVIELTPSNFNREVIQSDSLWLVEFYAPWCGHCQRLTPEWKKAATALKDVVKVGAVDADKHHSLGGQYGVQGFPTIKIFGSNKNRPEDYQGGRTGEAIVDAALSALRQLVKDRLGGRSGGYSSGNQGQSDSSSNKDVIELTDDSFDKNVLDSEDVWMVEFYAPWCGHCKNLEPEWAAAASEVKEQTKGKVKLAAVDATVNQVLASRYGIRGFPTIKIFQKGESPVDYDGGRTRSDIVSRALDLFSDNAPPPELLEIINEDIAKRTCEEHQLCVVAVLPHILDTGAAGRNSYLEVLLKLADKYKKKMWGWLWTEAGAQSELETALGIGGFGYPAMAAINARKMKFALLKGSFSEQGINEFLRELSFGRGSTAPVGGGAFPTIVEREPWDGRDGELPVEDDIDLSDVELDDLGKDEL | 2 | –
